Experimental data from patent US20100055033A1 (GOVERNMENT OF THE UNITED STATES OF AMERICA AS REPRESENTED …, published 2010).

Assays:
[1] = molecular target: human insulin (human, UniProt P01308 25-54; P01308 90-110, limits assumed); experiment: screening of a human naive phage library; assay not named here
[2] = molecular target: T1, human insulin-like growth factor II (human, UniProt P01344 25-91); experiment: ELISA on IGF-II, one Fab concentration (not given)
T1 construct: also called IGF-II; IGF II
T1 sequence (P01344 25-91 limits assumed): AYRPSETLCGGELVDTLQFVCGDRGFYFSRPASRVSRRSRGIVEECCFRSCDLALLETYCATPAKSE
Experimental: (§1) ELISA Binding Assay. Antigen was coated on narrow-well, 96-well plate at 50 ng/well overnight at 4° C. For phage ELISA, 10¹⁰ phage from each round of panning was incubated with antigen. Bound phage was detected with anti-M13-HRP polyclonal antibody (Pharmacia, Piscataway, N.J.). For soluble Fab binding assay, anti-Flag HRP conjugate was used to detect the binding.

[3] = molecular target: T2, recombinant human insulin-like growth factor I (human, UniProt P05019 49-118); experiment: ELISA on IGF-I, one Fab concentration (not given), duplicate bars
T2 construct: also called IGF-I; IGF I
T2 sequence (P05019 49-118 limits assumed): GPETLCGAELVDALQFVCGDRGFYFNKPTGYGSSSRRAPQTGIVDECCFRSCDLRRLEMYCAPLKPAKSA
Experimental: as §1

[4] = molecular target: T2, recombinant human insulin-like growth …; experiment: competition ELISA: m706 at 100 nM against the binding of IGF-I (50 nM) to soluble IGF-IR
[5] = molecular target: T2, recombinant human insulin-like growth …; experiment: competition ELISA: m708 at 400 nM against the binding of IGF-I (50 nM) to soluble IGF-IR
[6] = molecular target: T2, recombinant human insulin-like growth …; experiment: ELISA, Fab titrated on IGF-I
Experimental: as §1

[7] = molecular target: T1, human insulin-like growth factor II; experiment: method not stated (FIG. 9)

Chain of human insulin (P01308 25-54 limits assumed, chain 1 of 2): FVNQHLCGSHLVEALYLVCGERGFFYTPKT
Chain of human insulin (P01308 90-110 limits assumed, chain 2 of 2): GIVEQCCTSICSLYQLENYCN

B1: m705 Fab (Fab, V domains shown)
VH: QVQLVQSGVEVKKPGASVKVPCKASGYTFTSYYMHWVRQAPGQGLEWMGIINPSGGSTSYAQKFQGRVTMTRDTSTSTVYMELSSLRSEDTAVYYCARDDFWSGAVGMDVWGQGTTVTVSS
VL: DIQMTQSPATLSLSPGERATLSCRASQDVGSDLAWYQQKPGQPPRLLVSDASNRATGIPARFSGSGSGTDFKLTINSLEPEDSAVYYCQQRRRWPPGATFGGGTKVEIKR
notes: also called No. 5; IGF-I specific mAb
- binding result [1]: no binding
- binding result [2]: no binding
- binding result [3]: binds

B2: m706 Fab (Fab, V domains shown)
VH: EVQLVQSGVDVKKPGSSVKVSCKASGGTFSSYAISWVRQAPGQGLEWMGGIIPIFGTANYAQKFQGRVTITADESASTAYMELSSLRSEDTAVYYCASGYEGPLWAFDIWGQGTMVTVSS
VL: SQSVLTQPPSVSAAPGQRVSISCSGSSSNIGNYHVSWYQHLPGRAPKLLIYDNSKRPSGIPDRFSGSKSGTSATLDITGLQTGDEGDYYCATWDTSLRWVFGTGTKVTVL
notes: also called No. 6; IGF-I specific mAb
- binding result [1]: no binding
- binding result [2]: no binding
- binding result [4]: binds

B3: m708 Fab (Fab, V domains shown)
VH: QVQLQQSGAEVKKPGSSVKVSCKASGGTFSSYAISWVRQAPGQGLEWMGGIIPILGIANYAQKFQGRVTITADESTSTAYMELSSLRSEDTAVYYCARGPRGYSYNFDYWGQGTLVTVSS
VL: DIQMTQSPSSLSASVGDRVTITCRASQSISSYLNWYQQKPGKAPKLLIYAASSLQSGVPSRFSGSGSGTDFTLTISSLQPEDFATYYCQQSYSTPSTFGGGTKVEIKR
notes: also called No. 8
- binding result [5]: binds

B4: m708.2 Fab (Fab, V domains shown)
VH: B3 VH
VL: DIQMTQSPSSLSASVGDRVTIACRASQTISRYLNWYQQKPGKAPKLLIYAASSLQSGVSSRFSGSGSGTEFTLTISSLQPEDFATYFCQQTYSPPITFGQGTRLEIKR
notes: also called clone m708.2
- binding result [6]: binds

B5: m708.2 IgG1 (antibody, V domains shown)
VH: B3 VH
VL: B4 VL
notes: also called IgG708.2
- Kd [7]: ~80 pM
